Data on 16 molecules can be found in patent US20150344570A1 (published 2015).

The labels stand for the following.
B1: GpH7-A5/GpH7-B3 variant Y296_08L/GpL16-k0 (antibody, human IgG1, kappa)
heavy 1: not shown
heavy 2: not shown
light: DIVMTQSPLSLPVTPGEPASISCQASESLVHSNRNTYLHWYLQKPGQSPQLLIYKVSNRFSGVPDRFSGSGSGTDFTLKISRVEAEDVGVYYCSQNTHVPPTFGQGTKVEIERTVAAPSVFIFPPSDEQLKSGTASVVCLLNNFYPREAKVQWKVDNALQSGNSQESVTEQDSKDSTYSLSSTLTLSKADYEKHKVYACEVTHQGLSSPVTKSFNRGEC
notes: Heterodimerized anti-glypican-3 IgG1; alteration only in the GpH7-B3 chain, EU numbering; also called He Ab
B2: GpH7-A5/GpH7-B3 variant S298_07I/GpL16-k0 (antibody, human IgG1, kappa)
heavy 1: not shown
heavy 2: not shown
light: B1 light
notes: as for B1
B3: GpH7-A5/GpH7-B3 variant Q295_13S/GpL16-k0 (antibody, human IgG1, kappa)
heavy 1: not shown
heavy 2: not shown
light: B1 light
notes: as for B1
B4: GpH7-A5/GpH7-B3 variant Q295_07I/GpL16-k0 (antibody, human IgG1, kappa)
heavy 1: not shown
heavy 2: not shown
light: B1 light
notes: as for B1
B5: GpH7-A5/GpH7-B3 variant Q295_03V/GpL16-k0 (antibody, human IgG1, kappa)
heavy 1: not shown
heavy 2: not shown
light: B1 light
notes: as for B1
B6: GpH7-A5/GpH7-B3 variant Q295_02A/GpL16-k0 (antibody, human IgG1, kappa)
heavy 1: not shown
heavy 2: not shown
light: B1 light
notes: as for B1
B7: GpH7-A5/GpH7-B3 variant Q295_05P/GpL16-k0 (antibody, human IgG1, kappa)
heavy 1: not shown
heavy 2: not shown
light: B1 light
notes: as for B1
B8: GpH7-A5/GpH7-B3 variant Q295_14T/GpL16-k0 (antibody, human IgG1, kappa)
heavy 1: not shown
heavy 2: not shown
light: B1 light
notes: as for B1
B9: GpH7-A5/GpH7-B3 variant Y296_02A/GpL16-k0 (antibody, human IgG1, kappa)
heavy 1: not shown
heavy 2: not shown
light: B1 light
notes: as for B1
B10: GpH7-A5/GpH7-B3 variant S298_05P/GpL16-k0 (antibody, human IgG1, kappa)
heavy 1: not shown
heavy 2: not shown
light: B1 light
notes: as for B1
B11: GpH7-A5/GpH7-B3 variant S298_04F/GpL16-k0 (antibody, human IgG1, kappa)
heavy 1: not shown
heavy 2: not shown
light: B1 light
notes: as for B1
B12: GpH7-A5/GpH7-B3 variant S298_03V/GpL16-k0 (antibody, human IgG1, kappa)
heavy 1: not shown
heavy 2: not shown
light: B1 light
notes: as for B1
B13: GpH7-A5/GpH7-B3 variant S298_02A/GpL16-k0 (antibody, human IgG1, kappa)
heavy 1: not shown
heavy 2: not shown
light: B1 light
notes: Heterodimerized anti-glypican-3 IgG1; S298A (EU numbering) only in the GpH7-B3 chain; also called He Ab; GpH7-A5/GpH7-B3-15-02A/GpL16-k0
B14: GpH7-A5/GpH7-B3 variant Q295_11K/GpL16-k0 (antibody, human IgG1, kappa)
heavy 1: not shown
heavy 2: not shown
light: B1 light
notes: as for B1
B15: GpH7-A5/GpH7-B3 variant Y296_07I/GpL16-k0 (antibody, human IgG1, kappa)
heavy 1: not shown
heavy 2: not shown
light: B1 light
notes: as for B1
B16: GpH7-A5/GpH7-B3 variant Q295_16H/GpL16-k0 (antibody, human IgG1, kappa)
heavy 1: not shown
heavy 2: not shown
light: B1 light
notes: as for B1

The target in one assay is T1, FcγRIa extracellular domain with C-terminal His tag (human, UniProt P12314 16-292).
T1 construct: extracellular domain; also called FcgRI; 1a
T1 sequence (P12314 16-292): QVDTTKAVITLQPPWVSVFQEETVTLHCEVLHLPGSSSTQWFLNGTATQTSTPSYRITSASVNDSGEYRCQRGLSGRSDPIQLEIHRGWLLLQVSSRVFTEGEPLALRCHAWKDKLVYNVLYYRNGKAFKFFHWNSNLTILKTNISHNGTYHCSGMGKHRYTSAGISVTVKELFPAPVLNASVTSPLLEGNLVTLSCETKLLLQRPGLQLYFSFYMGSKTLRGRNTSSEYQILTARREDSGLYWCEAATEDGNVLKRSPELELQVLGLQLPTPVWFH
As to the kind of experiment: SPR (Biacore); He/Con_1a divided by He/Con_2b (FcγRIa binding over FcγRIIb binding). Here is the method: (§1) The heterodimerized antibodies He Abs in which one of the H chains was introduced with an alteration were assayed for their binding activities to each activating FcγR and inhibitory FcγR according to the method described in Example 4. […] The activating FcγRs in FIGS. 26, 27, 28, and 29 are FcγRIa, FcγRIIa (R), FcγRIIa (H), and FcγRIIIa, respectively.
(§2) Analysis of interaction between objective antibody and the FcγR was carried out using Biacore T100 (GE Healthcare). HBS-EP+ (GE Healthcare) was used as the running buffer, and the measurement temperature was set to 25° C. Chips produced by immobilizing the antigen peptide by the amine coupling method to a Series S Sencor Chip CM5 (GE Healthcare), or alternatively, chips produced by allowing preliminarily biotinylated antigen peptides to interact with and immobilize onto a Series S Sensor Chip SA (certified) (GE Healthcare) were used. Antibodies of interest were captured onto an antigen peptide-immobilized chip, and allowed to interact to each FcγR diluted with running buffer. To regenerate and repeatedly use the chip, the antibodies captured on the chip were washed off by reacting 10 mM glycine-HCl, pH 1.5.
Background: In SPR one partner is held on a chip, and binding of the other changes the refractive index at the surface.
For the molecule B1, the “He_1a/2b (Ia/IIb)” value was determined as 1.26 ratio.
With B2, the “He_1a/2b (Ia/IIb)” value came out at 1.52 ratio.
The same measure, in the same setting: the figure for B3 is 1.79 ratio; for B4 it is 1.22 ratio.
The same measure, in the same setting: the value for B5 was 1.37 ratio; that for B6 was 1.31 ratio; that for B7 was 1.53 ratio.
For the molecule B8, the “He_1a/2b (Ia/IIb)” value is 1.54 ratio.
In the case of B9, the “He_1a/2b (Ia/IIb)” value stood at 1.26 ratio.
The same measure, in the same setting: the figure for B10 is 7.7 ratio.
With B11, the “He_1a/2b (Ia/IIb)” value was determined as 1.67 ratio.
Still for that read-out and setting: the value for B12 was 1.7 ratio; that for B13 was 1.45 ratio; that for B14 was 1.44 ratio.
Still for that read-out and setting: the value for B15 was 1.24 ratio; that for B16 was 1.64 ratio.

The target in a further assay is T1, FcγRIa extracellular domain with …. As to the kind of experiment: SPR (Biacore), antibody captured via antigen peptide, FcγR as analyte; relative binding. Here is the method: as §1, §2
Regarding B1, the He/Con_1a is 104 % of GpH7-A5/GpH7-B3/GpL16-k0 (=100).
Same read-out and setting: the figure for B2 is 107 % of GpH7-A5/GpH7-B3/GpL16-k0 (=100).
The same measure, in the same setting: the value for B3 was 102 % of GpH7-A5/GpH7-B3/GpL16-k0 (=100).
As for B4, the He/Con_1a was 103 % of GpH7-A5/GpH7-B3/GpL16-k0 (=100).
The same measure, in the same setting: the figure for B5 is 104 % of GpH7-A5/GpH7-B3/GpL16-k0 (=100); for B6 it is 104 % of GpH7-A5/GpH7-B3/GpL16-k0 (=100).
Still for that read-out and setting: the value for B7 was 103 % of GpH7-A5/GpH7-B3/GpL16-k0 (=100); that for B8 was 103 % of GpH7-A5/GpH7-B3/GpL16-k0 (=100); that for B9 was 103 % of GpH7-A5/GpH7-B3/GpL16-k0 (=100).
Consider B10, for which the He/Con_1a was 91.6 % of GpH7-A5/GpH7-B3/GpL16-k0 (=100).
As to B11, the He/Con_1a was 109 % of GpH7-A5/GpH7-B3/GpL16-k0 (=100).
As for B12, the He/Con_1a is 110 % of GpH7-A5/GpH7-B3/GpL16-k0 (=100).
On the same count and under the same terms, the value for B13 was 107 % of GpH7-A5/GpH7-B3/GpL16-k0 (=100).
Take B14: the He/Con_1a was 101 % of GpH7-A5/GpH7-B3/GpL16-k0 (=100).
Still for that read-out and setting: the figure for B15 is 104 % of GpH7-A5/GpH7-B3/GpL16-k0 (=100); for B16 it is 102 % of GpH7-A5/GpH7-B3/GpL16-k0 (=100).

In the next assay the target is T2, FcγRIIb extracellular domain with C-terminal His tag (human, UniProt P31994 43-217).
T2 construct: extracellular domain; also called FcgRIIb; 2b
T2 sequence (looked up): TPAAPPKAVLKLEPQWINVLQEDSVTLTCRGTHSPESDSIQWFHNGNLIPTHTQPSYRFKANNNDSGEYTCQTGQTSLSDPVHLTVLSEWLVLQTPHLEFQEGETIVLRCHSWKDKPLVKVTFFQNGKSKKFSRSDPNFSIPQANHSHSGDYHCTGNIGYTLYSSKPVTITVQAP
The description is as above. Here is the method: as §1, §2
With B1, the He/Con_2b is 82.3 % of GpH7-A5/GpH7-B3/GpL16-k0 (=100).
Still for that read-out and setting: the value for B2 was 70.6 % of GpH7-A5/GpH7-B3/GpL16-k0 (=100).
Same read-out and setting: the value for B3 was 56.9 % of GpH7-A5/GpH7-B3/GpL16-k0 (=100); that for B4 was 84.3 % of GpH7-A5/GpH7-B3/GpL16-k0 (=100); that for B5 was 75.7 % of GpH7-A5/GpH7-B3/GpL16-k0 (=100).
As to B6, the He/Con_2b is 79.7 % of GpH7-A5/GpH7-B3/GpL16-k0 (=100).
Same read-out and setting: the figure for B7 is 67.5 % of GpH7-A5/GpH7-B3/GpL16-k0 (=100).
B8: the He/Con_2b is 66.8 % of GpH7-A5/GpH7-B3/GpL16-k0 (=100).
Still for that read-out and setting: the figure for B9 is 82 % of GpH7-A5/GpH7-B3/GpL16-k0 (=100); for B10 it is 11.9 % of GpH7-A5/GpH7-B3/GpL16-k0 (=100).
The same measure, in the same setting: the figure for B11 is 65.4 % of GpH7-A5/GpH7-B3/GpL16-k0 (=100); for B12 it is 64.5 % of GpH7-A5/GpH7-B3/GpL16-k0 (=100).
Consider B13, for which the He/Con_2b was 73.4 % of GpH7-A5/GpH7-B3/GpL16-k0 (=100).
On the same count and under the same terms, the value for B14 was 70.4 % of GpH7-A5/GpH7-B3/GpL16-k0 (=100); that for B15 was 84.3 % of GpH7-A5/GpH7-B3/GpL16-k0 (=100).
For the molecule B16, the He/Con_2b was 62.7 % of GpH7-A5/GpH7-B3/GpL16-k0 (=100).
